Numbering of substitutions follows the chain as printed.
T1: mouse CD47 (mouse, UniProt Q61735 19-303)
T1 construct: whole, on cells; also called CD47 on mouse red blood cells
T1 sequence (looked up): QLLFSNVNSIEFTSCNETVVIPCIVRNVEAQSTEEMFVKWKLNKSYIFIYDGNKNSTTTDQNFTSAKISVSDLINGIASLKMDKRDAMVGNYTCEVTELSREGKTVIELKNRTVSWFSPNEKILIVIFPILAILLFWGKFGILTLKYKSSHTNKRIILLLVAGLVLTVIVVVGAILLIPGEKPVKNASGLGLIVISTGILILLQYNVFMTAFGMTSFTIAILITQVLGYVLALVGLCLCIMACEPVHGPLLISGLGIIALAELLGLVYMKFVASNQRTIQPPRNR

T2: rat CD47 (rat, UniProt P97829 19-303)
T2 construct: whole, on cells; also called CD47 on rat red blood cells
T2 sequence (looked up): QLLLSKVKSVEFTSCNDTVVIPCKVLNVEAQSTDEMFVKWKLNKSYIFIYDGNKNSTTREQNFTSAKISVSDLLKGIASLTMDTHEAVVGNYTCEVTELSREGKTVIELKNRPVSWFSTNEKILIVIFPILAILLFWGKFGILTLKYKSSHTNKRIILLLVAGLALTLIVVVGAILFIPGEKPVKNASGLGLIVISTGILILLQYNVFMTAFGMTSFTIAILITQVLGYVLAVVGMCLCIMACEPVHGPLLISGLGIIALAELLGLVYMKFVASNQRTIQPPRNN

T3: pig CD47 (pig, UniProt Q9GKE8 19-303)
T3 construct: whole, on cells; also called CD47 on pig red blood cells
T3 sequence (looked up): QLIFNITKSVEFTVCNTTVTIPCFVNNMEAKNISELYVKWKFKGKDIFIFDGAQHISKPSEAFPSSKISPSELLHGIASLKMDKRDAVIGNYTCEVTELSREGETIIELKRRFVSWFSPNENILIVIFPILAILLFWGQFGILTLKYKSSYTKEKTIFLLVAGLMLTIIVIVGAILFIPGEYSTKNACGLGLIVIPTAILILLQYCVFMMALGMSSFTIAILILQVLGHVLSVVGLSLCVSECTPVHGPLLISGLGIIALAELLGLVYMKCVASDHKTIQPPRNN

B1: pVxK7b-037-hum24-LC/pVxK7b-037-hum24-HC (antibody, human IgG1, V domains shown)
VH: QVQLQESGPGLVKPGATVKISCKVSGYTFTNYYVFWVRQARGQRLEWIGDINPVNGDTNFNEKFKNRVTITADKSTSTAYMELSSLRSEDTAVYYCARGGYTMDYWGQG
VL: AIQLTQSPSSLSASVGDRVTITCRSSQSLVHSNGNTYLHWYQQKPGQAPRLLIYKVSYRFSGVPSRFSGSGSGTEFTLTISSLQPDDFATYYCSQNTHVPRTFGQG
notes: Full-length human IgG1/kappa in CHO supernatant; Variable entries end within framework 4 (...FGQG / ...WGQG); also called Clone 24
B2: pVxK7b-037-hum04-LC/pVxK7b-037-hum04-HC (antibody, human IgG1, V domains shown)
VH: QVQLQESGPGLVKPSQTLSLTCTVSGYTFTNYYVFWVRQAPGKGLEWVSDINPVNGDTNFNEKFKNRVTISVDTSKNQFSLKLSSVTAADTAVYYCARGGYTMDYWGQG
VL: B1 VL with A1D, L4M, Q42L, A48S, R50Q, V63I, S65A, P85S, D86E, T90V
notes: Full-length human IgG1/kappa in CHO supernatant; Variable entries end within framework 4 (...FGQG / ...WGQG); also called Clone 4
B3: pVxK7b-037-hum19-LC/pVxK7b-037-hum19-HC (antibody, human IgG1, V domains shown)
VH: EVQLVQSGAEVKKPGESLRISCKGSGYTFTNYYVFWIRQSPSRGLEWLGDINPVNGDTNFNEKFKNRVTITADKSTSTAYMELSSLRSEDTAVYYCARGGYTMDYWGQG
VL: DVVMTQSPLSLPVTLGQPASISCRSSQSLVHSNGNTYLHWYQQKPGKAPKLLIYKVSYRFSGVPDRFSGSGSGTDFTLKISRVEAEDVGVYYCSQNTHVPRTFGQG
notes: Full-length human IgG1/kappa in CHO supernatant; Variable entries end within framework 4 (...FGQG / ...WGQG); also called Clone 19
B4: pVxK7b-037-hum13-LC/pVxK7b-037-hum13-HC (antibody, human IgG1, V domains shown)
VH: B3 VH
VL: B3 VL with V2I, S7T, L15P, Q17E
notes: Full-length human IgG1/kappa in CHO supernatant; Variable entries end within framework 4 (...FGQG / ...WGQG); also called Clone 13
B5: pVxK7b-037-hum03-LC/pVxK7b-037-hum03-HC (antibody, human IgG1, V domains shown)
VH: B3 VH with I37V, S40A, P41R, S42G, R43Q, G44R, L48I
VL: B3 VL
notes: Full-length human IgG1/kappa in CHO supernatant; Variable entries end within framework 4 (...FGQG / ...WGQG); also called Clone 3
B6: chimeric antibody VxP037-01LC/VxP037-01HC (antibody, human IgG1, kappa, V domains shown)
VH: EVQLQQFGAELVKPGASMKLSCKASGYTFTNYYVFWVKQRPGQGLEWIGDINPVNGDTNFNEKFKNKATLTVDKSSTTTYLQLSSLTSEDSAVYYCTRGGYTMDYWGQGTLVTVSS
VL: DVVMTQTPLSLSVSLGDQASISCRSSQSLVHSNGNTYLHWYLQKPGQSPKLLIYKVSYRFSGVPDRFSGSGSGTDFTLKISRVEAEDLGVYFCSQNTHVPRTFGQGTKVEIKR
notes: tested as CHO supernatant; also called Chimera; VxP037-01-LC-Pro/VxP037-01-HC-Pro
B7: pVxK7b-037-hum02-LC/pVxK7b-037-hum02-HC (antibody, human IgG1, V domains shown)
VH: QVQLQESGPGLVKPSQTLSLTCTVSGYTFTNYYVFWVRQARGQRLEWIGDINPVNGDTNFNEKFKNRVTISADKSISTAYLQWSSLKASDTAMYYCARGGYTMDYWGQG
VL: DVVMTQSPLSLPVTLGQPASISCRSSQSLVHSNGNTYLHWYQQKPGQAPRLLIYKVSYRFSGVPSRFSGSGSGTEFTLTISSLQPDDFATYYCSQNTHVPRTFGQG
notes: Full-length human IgG1/kappa in CHO supernatant; Variable entries end within framework 4 (...FGQG / ...WGQG); also called Clone 2

Assays:
Test in all cases: flow cytometry on RBCs, antibody 10 ng/ml
[1] = target: T4, human CD47 (human, UniProt Q08722 19-323)
T4 construct: whole, on cells; also called CD47 on human red blood cells
Experimental: (§1) Cross species reactivity of humanized antibodies of the present invention is determined using freshly isolated red blood cells (RBCs), which display CD47 on their surface, from human, mouse, rat, and pig according to the methods disclosed in Kamel et al. (2010) Blood. Transfus. 8(4):260-266.
(§2) RBCs are incubated for 60 minutes on ice with tissue culture supernatants containing the secreted humanized antibodies at a concentration of 10 ng/ml in a solution of phosphate buffered saline, pH 7.2, 2.5 mM EDTA (PBS+E). Cells are then washed with cold PBS+E, and incubated for an additional hour on ice with FITC labeled donkey anti-human antibody (Jackson Immuno Research Labs, West Grove, Pa.; Catalogue #709-096-149) in PBS+E. Cells are then washed with PBS+E, and antibody binding is analyzed using a BD FACSAria Cell Sorter (Becton Dickinson) or a C6 Accuri Flow Cytometer (Becton Dickinson). Antibody binding is quantitated by comparison of mean fluorescence values relative to that of chimeric antibody >VxP037-01LC (SEQ ID NO:7))/>VxP037-01HC (SEQ ID NO:57). The mean fluorescence value for each antibody is divided by the mean fluorescence value for the chimeric antibody.

[2] = target: T1, mouse CD47
Experimental: as §1, §2

[3] = target: T2, rat CD47
Experimental: as §1, §2

[4] = target: T3, pig CD47
Experimental: as §1, §2

T4 sequence (Q08722 19-323): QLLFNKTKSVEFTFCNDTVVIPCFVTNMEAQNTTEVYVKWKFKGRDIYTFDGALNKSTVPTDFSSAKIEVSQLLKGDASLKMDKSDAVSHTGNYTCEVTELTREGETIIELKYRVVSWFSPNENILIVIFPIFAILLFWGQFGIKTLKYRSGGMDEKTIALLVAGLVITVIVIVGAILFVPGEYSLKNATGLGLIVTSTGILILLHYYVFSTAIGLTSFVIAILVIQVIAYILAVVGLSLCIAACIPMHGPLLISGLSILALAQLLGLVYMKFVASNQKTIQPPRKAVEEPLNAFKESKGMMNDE

Binder	mean fluorescence relative to chimeric antibody [1]	mean fluorescence relative to chimeric antibody [2]	mean fluorescence relative to chimeric antibody [3]	mean fluorescence relative to chimeric antibody [4]
B1	0.8 fold of chimera	0.7 fold of chimera	1.2 fold of chimera	1.1 fold of chimera
B2	0.6 fold of chimera	0.6 fold of chimera	1 fold of chimera	0.6 fold of chimera
B3	0.7 fold of chimera	1 fold of chimera	2.6 fold of chimera	1.3 fold of chimera
B4	1.2 fold of chimera	1.3 fold of chimera	3.1 fold of chimera	1.4 fold of chimera
B5	0.7 fold of chimera	0.9 fold of chimera	1.7 fold of chimera	0.9 fold of chimera
B6	1 fold of chimera	1 fold of chimera	1 fold of chimera	1 fold of chimera
B7	1 fold of chimera	1.2 fold of chimera	2.6 fold of chimera	1.2 fold of chimera
